The assay has as its target T1, human ROBO3 (pCI-hROBO3-transfected HEK293 cells) (human, UniProt Q96MS0 21-1386).
T1 sequence: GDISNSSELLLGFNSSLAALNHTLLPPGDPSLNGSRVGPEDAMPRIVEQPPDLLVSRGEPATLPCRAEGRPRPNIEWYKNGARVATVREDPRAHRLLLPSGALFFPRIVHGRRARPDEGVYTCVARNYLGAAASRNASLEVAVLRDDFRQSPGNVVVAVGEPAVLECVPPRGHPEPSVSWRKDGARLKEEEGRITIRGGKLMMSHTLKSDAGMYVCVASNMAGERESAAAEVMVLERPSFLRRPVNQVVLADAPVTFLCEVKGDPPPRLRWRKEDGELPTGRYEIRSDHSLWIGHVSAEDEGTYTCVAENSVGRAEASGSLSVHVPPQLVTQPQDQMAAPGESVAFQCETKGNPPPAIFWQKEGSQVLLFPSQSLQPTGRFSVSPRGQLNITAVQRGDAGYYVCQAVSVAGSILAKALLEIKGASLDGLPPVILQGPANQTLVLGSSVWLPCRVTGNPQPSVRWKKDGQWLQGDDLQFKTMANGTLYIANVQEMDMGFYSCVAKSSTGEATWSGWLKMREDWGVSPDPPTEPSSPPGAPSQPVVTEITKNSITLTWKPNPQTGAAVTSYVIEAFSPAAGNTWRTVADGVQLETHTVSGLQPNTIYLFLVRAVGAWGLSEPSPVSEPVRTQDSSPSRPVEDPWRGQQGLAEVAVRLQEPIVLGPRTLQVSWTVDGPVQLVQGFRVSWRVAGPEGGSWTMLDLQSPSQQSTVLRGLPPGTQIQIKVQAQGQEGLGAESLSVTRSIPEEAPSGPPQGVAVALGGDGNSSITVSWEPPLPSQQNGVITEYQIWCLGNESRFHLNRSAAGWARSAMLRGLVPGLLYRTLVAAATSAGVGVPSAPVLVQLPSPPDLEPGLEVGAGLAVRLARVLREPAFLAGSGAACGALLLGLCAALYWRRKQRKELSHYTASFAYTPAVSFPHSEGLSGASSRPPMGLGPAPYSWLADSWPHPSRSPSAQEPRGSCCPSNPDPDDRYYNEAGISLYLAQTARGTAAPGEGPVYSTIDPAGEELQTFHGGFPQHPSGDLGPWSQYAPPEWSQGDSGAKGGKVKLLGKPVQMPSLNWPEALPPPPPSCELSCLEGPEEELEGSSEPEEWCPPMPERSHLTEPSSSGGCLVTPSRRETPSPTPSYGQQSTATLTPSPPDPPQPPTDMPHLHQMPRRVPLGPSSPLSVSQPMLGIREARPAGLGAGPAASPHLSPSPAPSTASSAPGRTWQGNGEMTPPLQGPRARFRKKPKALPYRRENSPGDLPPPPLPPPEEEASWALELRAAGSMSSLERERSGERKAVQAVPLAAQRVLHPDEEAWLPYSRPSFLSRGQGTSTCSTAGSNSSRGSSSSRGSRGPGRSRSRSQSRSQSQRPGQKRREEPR
The assay can be described thus: flow cytometry, HEK293 cells transfected with pCI-hROBO3, anti-mouse IgG FITC; control histogram IgG. The method, then:
HEK293 cells were inoculated at a concentration of 1.2×10⁶ cells/dish or 1.5×10⁶ cells/dish to a 60-mm dish (manufactured by Corning Inc.) and cultured overnight in a DMEM medium containing 10% FBS at 37° C. under 5% CO₂ conditions. On the next day, the HEK293 cells were transfected with pCI-hROBO4, pCI-FLAG-hROBO1, pCI-hROBO2, or pCI-hROBO3 using FuGENE6 Transfection Reagent and further cultured overnight at 37° C. under 5% CO₂ conditions. On the next day, the expression vector-transfected cells were treated with TrypLE Express (manufactured by Life Technologies Corp.), washed with PBS containing 5% FBS, and then suspended in PBS containing 5% FBS. The obtained cell suspension was used in flow cytometry analysis.
Each cell suspension prepared in 4)-4-1 was centrifuged, and the supernatant was removed. […] Data was analyzed using Flowjo. The histogram of FITC fluorescence intensity was prepared. The antibody was determined to bind in a specific manner when the histogram of MAb1 was shifted to a stronger fluorescence intensity region compared with the histogram of the negative control Mouse IgG1 or Mouse IgG2a. […]

B1: anti-ROBO4 mouse monoclonal antibody MAb1 (antibody, mouse IgG1, V domains shown)
VH: EVQLVESGGGLVKPGGSLKLSCAASGFTFSTYAMSWVRQTPEKRLEWVATISNGGTYTYYPDSVKGRFTISRDNAENTLYLQMSSLRSEDTAMYFCARLIYYDYLDYWGHGTTLTVSS
VL: DAVMTQTPLSLPVSLGDQASISCRSSQSLENSNGNTYLNWYFQKPGQSPQLLIYRVSNRFSGVLDRFSGSGSGTDFTLKISRVEAEDFGVYFCLQVTHVPWTFGGGTKLEIKR
notes: Mouse IgG1 (gamma1), kappa light chain, purified from hybridoma supernatant; also called parent antibody MAb1
With B1, the binding result was “no binding (tested: 10 µg/mL)”.

Values taken from patent US20150098945A1 (Daiichi Sankyo, published 2015).
